Data from the nanobody polyreactivity screen of Harvey et al. (2022).

assay: yeast display, Sf9 membrane polyspecificity reagent, FACS + sequencing; frameworks hold sequencing errors
Method in brief: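 Synthetic nanobody libraries on Saccharomyces cerevisiae BJ5465 were galactose-induced for 36–48 hours, stained 1 hour at 4 °C with 10% biotinylated, detergent-solubilized Sf9 membrane reagent and enriched on streptavidin microbeads. FACS then separated cells into low and high (top ~1%) gates by anti-HA (expression) and streptavidin (reagent binding) fluorescence. Genes were colony-PCR amplified, MiSeq 2 × 250 sequenced and CDR-length filtered. A clone's polyreactivity label is that of its gate of origin.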

Row | Sequence | polyreactivity (PSR sort gate)
1 | QVQLVESGGGLVQAGGSLRLSCAASGSTFTINVMGWYSQAPGKEREVVAAINGGGRTNYADSVKGRFTISRDHAKNTVNLQMNSLKPEDTAVYYCAADGLSNVRQMDYWGQGTQVTVSS | low polyreactivity
2 | QVQLVESGGGLVQAGGSLRLSCAASGRIFNIYALGWYRQAPGKERELVAAISGSGSTYYADSVKGRFTISRDNAKNTVYLQMNSLKPEDTAVYYCAARSLVRYYHNANYYPYYYWGQGTQVTVSS | high polyreactivity
3 | QVQLVETGGGLVQAGGSLGLSCDASGRIFDYYSMGWYRQATGKERELVASITRGGITYYADSVKGRFTISRDNAKNTVYLQMNSLKPEDTAVYYCADGLRWRRTYGYWGQGTQVTVSS | high polyreactivity
4 | QVQLVESGGGLVQAGGSLRLSCAASGIIFGRYAMGWYRQAPGKERELVAAINASGGSTYYADSVKGRFTISRDNAKNTVYLQMNSLKPEDTAVYYCATRSTRSRTSGYYYWGQGTQVTVSS | high polyreactivity
5 | EVQLVESGGGLVQPGGSLRLSCAASGYIYSRYRMGWYRQAPGKGREFVAAISGGSSTNYADSVKGRFTISRDNSKNTVYLQMNSLRAEDTAVYYCAAYKIDIDPRVYWGHGTQVTVSS | low polyreactivity
6 | QVQLVESGGGLVQAGGSLRLSCAASGSTFAYYAMGWYRQAPGKEREFVAAISTRGGSTYYADSVKGRFTISRDNAKNTLYLQMNSLKPEDTAVYYCAAGYFNYSWRIRFDYWGQGTQVTVSS | high polyreactivity
7 | QVQLVESGGGLVQAGGSLRLSCAASGSILAGYAMGWYRQAPGKERELVAAITTGGGSTYYADSVKGRFTISRDNAKNTVYLQMNSLKPEDTAVYYCAAYRKPGSWTWWVRGYGYWGQGTQVTVSS | low polyreactivity
8 | QVQLVESGGGLVQAGGSLRLSCADSGRTLGYYAKGWYRQAPGKEREVVAAITSGGRTNYADSVKGRFTISRDNAKNTVYLQMNSLKPEDTAVYYCAAARYLSGGYEKYDYWGQGTQVTVSS | low polyreactivity
9 | QVQLVESGGGLVQAGGSLRLSCAASGSIFYDKDSGWYRQAPGKERELFAAITSTGGSTYYADSVKGRFTISRDHAKNTVYLQMNSLKPEDTAVYDCNTPTYLYWGFNTYDYWGQGTQFTVSS | low polyreactivity
10 | QVQLVESGGGLVQAGGSLRLSCAASGFTFSRNAMGWYRQAPGKERELVAAITSRGGSTYYADSVKGRFTISRDNAKNTVYLQMNSLKPEDTAVYYCNAKLISGIYTADSRSRIYDYWGQGTQVTVSS | high polyreactivity
11 | QVQLVESGGGLVQAGGSLRLTSAASGFIFWPYLMGWYRQAPGKDRELVAAISQGDGSTYYADSVKVRFTISRDNAKNTVYLQMNSLKGEDTAVYYCAADVTVAWYPVYPGFYYWGQGTQVTVSS | low polyreactivity
12 | QVQLVESGGGLVQAGGSLRLSCAASGLTFGRYAMGWYRQAPGKERELVAAITWIGDGTYYGDSVKGRFTISRDNAKKTVYLQMNSLTPEDTAVYYCAAVYYTYLYGRYNYWGQGTQVTVSS | low polyreactivity
13 | QVQLVESGGGLVQAGGSLRLSCAASGLTLTYYAMGWYRQAPGKERELVAAISSSGGSTYYADSVKGRFTISRDNAKNTVYLQMNSLKPEDTAVYYCAARDWASHTPFDYWGQGTQVTVSS | high polyreactivity
14 | QVHLVESGGGLVQAGGSLRLSCAPSGNIFFSNAMGWYRQAPGKERELVASISQSGGSTYYADSLKGRFTISRDNAKNTVYFQMNSLKPEDTAVYYCNAFSITFYDFNSWGQGTQVTVSS | low polyreactivity
15 | QVQLVESGGGLVQAGGSLRLSCAASGRTFRYYAMGWYRQAPGKERELVAAITVRTGSTSYADSVKGRFTISRDNAKNTVYLQMNSLKPEDTAVYYCAATSRYFQPPGYGGGRIGYGYWGQGTQVTVSS | high polyreactivity
16 | QVQLVESGGGLVQAGGSLRLSCAASGFTFVTYAMGWYRQAPGKERELVAAISSSGRTYYADSVKGRFTISRDNAKNTVYLQMNSLKPEDTAVYYCAVQGAWRSFYYWGQGTQVTVSS | high polyreactivity
17 | QVQLVESGGGLVQAGGSLRLSCAASGSIFNRYAMGWYRQAPGKERELVAAIRSDGSTYYADSVKGRFTISRDNAKNTVYLQMNSLKPEDSAVYYCAAPLHRRYYEMDYWGQGSQVTVSS | low polyreactivity
18 | QVQLVESAGRLVQAGGSLRLSCAASGSTFYSYAMGWYRQAPGKEREFVAAITYSDGITYYADSVKGRFTISRDNAKNTVYLQMNSLKPEDTAVYYCAKAPIWGVTRKFDYWGQGNQVTVSS | high polyreactivity
19 | QVQLQESGGGLVQAGGSLRLSCAASGSISHYIFMGWYRQAPGKQREFVAGIGYGGTTNYADSVKGRFTISRDNAKNTVYLQRNSLKPEDTGMYYCAAREATEFYLYYWGQGTQVTVSS | low polyreactivity
20 | EVQLVESGGGLVQAGGSLRLSCAASGSTFNWNDMGWYRQAPGKEREFVASISTTGSTNYADSVKGRFTISRDNAKNTVYLQMNSLKPEDTAVYYCNAEYGWYYWYGYWFYEGDYWGQGTQVTVSS | high polyreactivity
21 | QVQLVESGGGLVQAGGSLRLSCAASGLTFYGNAMGWYRQAPGKERELVADISLSGGRTFYADSVKGRFTISRDNAKNTVYLQMNSLKPEDTAVYYCAAVWRTGWYYEYYHWGQGTQVTVSS | low polyreactivity
22 | QVQLVESGGGLVQAGGSLRLSCAASGIIFPYYTMGGYRQAPGKERELVARITNGGRTYSADSVKGRFTISRDKAKNTVYLQMNSLKPEDTAVYYCAASWGRRKPRMDYWGQGTQVTVSS | high polyreactivity

Row | Sequence | polyreactivity (PSR sort gate)
23 | QVQVVESGGGLVQAGGSLRLSCAASGRIFTGYAMGWYSQAPGTERELVAAISRGGSTNYADSVKGRFTISRDNAKNTVYLQMNSLKPEDTAVYYCAAGVHWDRGDYWGQGTQVTVSS | low polyreactivity
24 | QVQLVESVRRLVQAGGSLRLSCAASGSIYYPYAMGWYRQAPGKEMELVAAITGHGGSTYYADSVKGRFTISRDNAKNTVYLQMNSLNPEDTAVYYCATGGYQPVLHRGYYRFNYWGQGTQVTVSS | low polyreactivity
25 | QVQLEESGGGLVQAAGSLRLRCAASGSTLTFNAMGWYRHAPGKERELVAAISWSDTDTYYADSVKGRFTISRDNAKNTVYLQMNSLKPEDTAVYYCASTLSAYEMDYWGQGTQVTVSS | low polyreactivity
26 | QVQLVESGGGLVQAGGSLRLSCAASGNIFGAYAMGWYRQAPGKERELVATINWSGTRTYADSVKGRFTISRDNAKNTVYLQMNSLKPEDTAVYYCATKIAGRYRTRYYWGQGTQVTVSS | high polyreactivity
27 | QVQLQESGGLVQAGGLRLSCAASGSDSYQEDMAWYRQAPGKERELVATISFGANTNYADSVKGRFTISRDNAKNTVYLQMNSLKPEDTAVYYCAAESLFDDYYGYWGQGTQVTVSS | low polyreactivity
28 | QVQLVESGGGLVQAGGSLRLSCAASGSTFQPNAMGWYRQAPGKERELVAAISKSDGRTYYADSVKGRFTISRDNAKNTVYLQMNSLQPEDTAVYNCAADAYWEPKVGFSLFDYWGQGTQVTVSS | low polyreactivity
29 | QVQLVESGGGLVQAGGSLRLSCAASGRTFYIYAMGWYRQAPGKERELVATIDSTGSTNYADSVKGRFTISRDNAKNTVYLQMNSLKPEDTAVYYCNADDWVGRSLRYDYWGQGTQVTVSS | low polyreactivity
30 | QVQLVESGGGLVQAGGSLRLSCSASGRILYSYSMGWYRQAPGKEREFVAAIRRSGGSTYYADSVKGRFTISRDNAKNTVYLQMNSLKPEDTAVYYCAAGRRYSGSYDYWGQGTQVTVSS | high polyreactivity
31 | QVQLVESGGGLVQAGGSLRLSCAASGSIFDSYAMGWYRQAPGKERELVAAISRIGGTTYYADSVKGRFTISRDNAKNTVYLQMNTLKPEDTAVYYCAAGPLLPRYSQYGYWGLGTQVTVSS | low polyreactivity
32 | QVQLVESGGGLVQAGGSLRLSCAASGRTFGKYTMGWYRQAPGKERELVAAINRRGGSTYYADSVKGRFTISRDNAKNTVYLQMNSLKPEDTAVYYCAKDGYSIDRYYWGQGTQVTVSS | high polyreactivity
33 | QVQLVESGGGLVQAGGSLRLSCAASGFTFFYYAIRWYRQAPGKEREVVAAISSNGGRTYYADSVKGRFTISRDNAKNTVYLQMYSLKPEDTAVYYCTALRYVVYFDDDYWGQGTQVTVSS | high polyreactivity
34 | QVQHVESGGGLVQAGGSLRLSCAASGSTFSYYAMGWSRQAPGKERELVAAISGSGASTYYADSVKGRFTISRDNAKNTVYLQMNSLKPEDTAVYYCAKYYVREHYDYWGQGTQVTVSS | low polyreactivity
35 | QVQLVESGGGLVQAGGSLRLSCAASGLTFYYYAMGWYRQAPGKEREFVAAISYRGGRTYYADSVKGRFTISRDNAKNTVYLQMNSLKPEDTAVYYCAKLGKSRWWGVGPLEMDSWGQGTQVTVSS | high polyreactivity
36 | QVQLVESGGGLFQAGGSLRLSCAASGRTFQNAMGWYRQAPGKERELVAAISVRGTRTYYADSVKGRFTISRDNAKNTVYLQMNSLKPEDTAVYYCAADRGKATSADDYWGQGTQVTVSW | high polyreactivity
37 | QVQLVESGGGLVQAGGSLRLSCAASGRIFPRYAMGWYRQAPGKERELVARITRRGGITYYADSVKGRFTISRDNAKNSVYLQMNSLKPEDTAVYYCNVDYYRGGDFSYGYDYWGQGTQVTVSS | high polyreactivity
38 | QVQLVESGGGLVQAGGSLRLSCAASGSNFYSYAMGWYRQAPGKESELVAAITKSSGSTYYAASVKGRFTISRDYAKNTVYLQMNSLKPEDTAVYYCAATRYRPVRLYYWGQGTQVTVSS | high polyreactivity
39 | QVQLVDSGGGLVQAGGSLRLSCAASGITFNSYVMGLYRQAPGKERELVAVISRGGGITYYADSVKGRFTISRDNAKNTVYLQMNSLKPEDTAVSYCAADHTHGYVLYYNDNYWGQGTQVTVSS | high polyreactivity
40 | QVQLVESGGGLVQAGGSLRLSCAASGSIFGYNAMGWYRQAPGKEREFVAAITSGGSTYYADSVKGRFTISRDNAKNTVYLQMNSLKPEDTAVYYCRRRNVDSTRRYDYWGQGTQVTVSS | high polyreactivity
41 | QVQLVESGEGLVQAGGSLRLSCAASGRIFYSNDMGWYRQAPGKEREFVAAITDSGGSTYYADSVKGRFTISRDNAKNTVYLQMNSLKPEDTAGYYCAKRQYQSYIRGPYYYWGQGTQVNVSS | low polyreactivity
42 | QVQLVESGGGLVQAGGSLLLSCAASGRTFTRYAMGWYRQAPGKERELVASITNGGGTYYADSVKGRFTMSRDNAKNTVYLQMNSLKPEDTAVYYCAKAERVTSHLYYSWGQGTQVTVSS | low polyreactivity
43 | QEQLQESGSGLVQAGGSLRLSCAASGNIFRDWVMGWYRQAPGKERELVAAISPGAITYYADSVKGRFTISRDNAKNTVYLQTNSLKPEDTEVYYCAAYYIVEYLHGYWGQGTRVTVSS | low polyreactivity
